Results from patent US20130005646A1 (Novo Nordisk, published 2013).
Where two headings read alike, the source gives them in different places. Starred links: 1 amine or outer side, 2 acyl side, 3 side chain; linkers in the order of their positions; H or OH if unused. Positions of bridges follow the written chain, without caps; N, C: chain ends. *: point of attachment. C20 diacid = O=C(O)CCCCCCCCCCCCCCCCCCC(=O)*; γGlu = O=C(O)[C@H](CCC(=O)[*:2])N[*:1]

T1: rat amylin 3(a) receptor (rat calcitonin(a) receptor + rat RAMP3) (rat, UniProt P32214 25-516; Q9JJ73 23-147)
T1 sequence (looked up) 1: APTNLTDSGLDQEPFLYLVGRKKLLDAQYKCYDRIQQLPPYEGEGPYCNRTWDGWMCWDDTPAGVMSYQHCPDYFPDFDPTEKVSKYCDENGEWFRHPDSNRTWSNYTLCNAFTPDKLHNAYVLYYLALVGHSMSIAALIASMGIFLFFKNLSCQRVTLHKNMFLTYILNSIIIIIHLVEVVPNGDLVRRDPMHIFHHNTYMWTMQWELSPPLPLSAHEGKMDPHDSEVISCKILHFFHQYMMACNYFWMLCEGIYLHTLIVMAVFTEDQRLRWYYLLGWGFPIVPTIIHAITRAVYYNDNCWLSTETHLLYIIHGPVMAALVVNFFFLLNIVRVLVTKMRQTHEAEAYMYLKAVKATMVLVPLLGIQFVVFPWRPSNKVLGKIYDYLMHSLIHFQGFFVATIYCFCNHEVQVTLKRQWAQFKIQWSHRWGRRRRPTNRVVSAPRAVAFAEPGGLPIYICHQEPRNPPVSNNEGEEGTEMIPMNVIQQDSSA
T1 sequence (looked up) 2: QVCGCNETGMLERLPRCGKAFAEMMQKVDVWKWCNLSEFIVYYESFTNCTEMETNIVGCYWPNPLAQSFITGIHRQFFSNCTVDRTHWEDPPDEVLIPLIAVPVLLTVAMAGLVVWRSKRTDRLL

T2: rat calcitonin (a) receptor (rat, UniProt P32214 25-516)
T2 sequence (looked up): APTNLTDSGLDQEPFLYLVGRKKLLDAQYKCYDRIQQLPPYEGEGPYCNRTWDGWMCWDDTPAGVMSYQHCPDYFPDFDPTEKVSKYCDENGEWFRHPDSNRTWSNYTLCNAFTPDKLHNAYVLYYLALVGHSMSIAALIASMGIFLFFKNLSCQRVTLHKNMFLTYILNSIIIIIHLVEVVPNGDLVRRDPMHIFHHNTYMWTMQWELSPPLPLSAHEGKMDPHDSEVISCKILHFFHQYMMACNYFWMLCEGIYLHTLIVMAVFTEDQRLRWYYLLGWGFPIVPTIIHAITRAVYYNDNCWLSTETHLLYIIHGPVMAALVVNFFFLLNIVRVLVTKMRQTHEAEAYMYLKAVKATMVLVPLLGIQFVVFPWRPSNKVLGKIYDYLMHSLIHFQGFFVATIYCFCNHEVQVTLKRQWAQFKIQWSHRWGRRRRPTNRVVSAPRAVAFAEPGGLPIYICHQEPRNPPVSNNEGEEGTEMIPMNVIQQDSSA

T3: human amylin 3(a) receptor (human calcitonin receptor + RAMP-3) (human, UniProt P30988 25-474; O60896 24-148)
T3 sequence (looked up) 1: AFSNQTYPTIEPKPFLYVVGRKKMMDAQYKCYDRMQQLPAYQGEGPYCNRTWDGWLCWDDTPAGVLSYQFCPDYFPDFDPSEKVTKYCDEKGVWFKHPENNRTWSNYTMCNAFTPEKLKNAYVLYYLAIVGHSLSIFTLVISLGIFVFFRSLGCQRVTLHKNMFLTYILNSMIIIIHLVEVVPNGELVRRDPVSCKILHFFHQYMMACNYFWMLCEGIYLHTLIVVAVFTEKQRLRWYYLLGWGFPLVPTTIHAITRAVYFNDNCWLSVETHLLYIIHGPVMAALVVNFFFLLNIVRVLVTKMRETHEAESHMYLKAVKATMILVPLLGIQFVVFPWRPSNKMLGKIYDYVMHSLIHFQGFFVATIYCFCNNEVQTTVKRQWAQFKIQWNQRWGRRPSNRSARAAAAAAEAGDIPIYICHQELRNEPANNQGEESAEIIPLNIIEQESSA
T3 sequence (looked up) 2: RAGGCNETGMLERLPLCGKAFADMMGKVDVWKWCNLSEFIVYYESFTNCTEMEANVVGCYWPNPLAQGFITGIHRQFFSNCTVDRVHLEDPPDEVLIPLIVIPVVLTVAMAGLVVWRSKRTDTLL

T4: human calcitonin (a) receptor (human, UniProt P30988 25-474)
T4 sequence (looked up): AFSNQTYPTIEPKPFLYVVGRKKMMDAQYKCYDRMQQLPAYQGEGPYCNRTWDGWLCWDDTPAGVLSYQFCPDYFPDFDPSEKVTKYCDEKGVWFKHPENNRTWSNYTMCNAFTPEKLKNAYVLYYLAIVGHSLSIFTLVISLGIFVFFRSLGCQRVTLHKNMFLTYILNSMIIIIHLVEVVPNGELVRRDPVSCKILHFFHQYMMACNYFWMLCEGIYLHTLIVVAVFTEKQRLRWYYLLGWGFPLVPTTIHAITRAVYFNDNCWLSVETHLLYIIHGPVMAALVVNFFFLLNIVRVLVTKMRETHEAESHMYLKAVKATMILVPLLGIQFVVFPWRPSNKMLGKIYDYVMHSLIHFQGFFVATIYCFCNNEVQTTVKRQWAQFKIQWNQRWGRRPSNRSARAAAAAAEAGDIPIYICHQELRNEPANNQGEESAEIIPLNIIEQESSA

T5: human amylin 3(a) receptor (human calcitonin receptor with RAMP-3) (human) (UniProt P30988)
T5 sequence (looked up) 1: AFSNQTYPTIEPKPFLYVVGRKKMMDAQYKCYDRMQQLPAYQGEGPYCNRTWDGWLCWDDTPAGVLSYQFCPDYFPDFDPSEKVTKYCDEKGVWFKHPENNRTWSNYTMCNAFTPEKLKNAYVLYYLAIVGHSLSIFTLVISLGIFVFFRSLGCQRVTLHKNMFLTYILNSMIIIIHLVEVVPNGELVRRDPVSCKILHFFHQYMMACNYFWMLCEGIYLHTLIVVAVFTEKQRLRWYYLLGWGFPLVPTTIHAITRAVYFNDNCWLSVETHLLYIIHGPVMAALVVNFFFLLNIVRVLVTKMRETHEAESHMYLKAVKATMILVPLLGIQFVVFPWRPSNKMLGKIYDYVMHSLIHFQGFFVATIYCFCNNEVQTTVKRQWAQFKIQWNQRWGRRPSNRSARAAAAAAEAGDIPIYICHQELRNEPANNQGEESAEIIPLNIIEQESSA
T5 sequence (looked up) 2: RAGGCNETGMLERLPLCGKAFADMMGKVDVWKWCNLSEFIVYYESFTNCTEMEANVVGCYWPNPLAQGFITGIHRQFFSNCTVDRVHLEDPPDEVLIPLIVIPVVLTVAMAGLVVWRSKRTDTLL

T6: human calcitonin (a) receptor (human) (UniProt P30988)
T6 sequence (looked up): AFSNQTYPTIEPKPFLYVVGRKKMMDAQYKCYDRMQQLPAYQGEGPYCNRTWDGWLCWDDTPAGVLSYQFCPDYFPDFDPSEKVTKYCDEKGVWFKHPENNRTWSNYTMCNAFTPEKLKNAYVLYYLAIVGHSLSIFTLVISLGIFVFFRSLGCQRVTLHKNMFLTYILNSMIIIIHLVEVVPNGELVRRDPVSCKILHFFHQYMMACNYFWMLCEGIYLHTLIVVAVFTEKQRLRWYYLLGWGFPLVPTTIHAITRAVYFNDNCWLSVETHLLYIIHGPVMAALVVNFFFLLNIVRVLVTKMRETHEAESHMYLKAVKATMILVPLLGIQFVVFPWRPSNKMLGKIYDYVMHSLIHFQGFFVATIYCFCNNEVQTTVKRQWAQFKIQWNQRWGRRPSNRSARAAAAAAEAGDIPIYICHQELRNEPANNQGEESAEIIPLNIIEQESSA

T7: human amylin 3(a) receptor (human calcitonin receptor co-expressed with RAMP-3) (human) (UniProt P30988)
T7 sequence (looked up) 1: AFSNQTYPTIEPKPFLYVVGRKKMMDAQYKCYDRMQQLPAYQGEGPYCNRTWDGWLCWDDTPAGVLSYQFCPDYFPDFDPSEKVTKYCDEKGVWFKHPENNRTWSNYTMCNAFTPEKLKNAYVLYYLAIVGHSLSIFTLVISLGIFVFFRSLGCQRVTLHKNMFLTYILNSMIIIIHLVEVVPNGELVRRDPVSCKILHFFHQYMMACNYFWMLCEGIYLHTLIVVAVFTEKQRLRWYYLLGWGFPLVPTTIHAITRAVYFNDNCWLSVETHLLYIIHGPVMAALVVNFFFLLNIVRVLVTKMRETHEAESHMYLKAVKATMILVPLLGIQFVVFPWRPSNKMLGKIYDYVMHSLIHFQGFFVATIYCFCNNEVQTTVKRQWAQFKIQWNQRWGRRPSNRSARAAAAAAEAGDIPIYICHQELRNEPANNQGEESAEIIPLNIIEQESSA
T7 sequence (looked up) 2: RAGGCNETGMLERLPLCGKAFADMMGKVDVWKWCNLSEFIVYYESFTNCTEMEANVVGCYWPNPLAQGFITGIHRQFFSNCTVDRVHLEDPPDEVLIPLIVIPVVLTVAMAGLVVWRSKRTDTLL

T8: human amylin 3(a) receptor (human calcitonin receptor + RAMP-3) (human) (UniProt P30988)
T8 sequence (looked up) 1: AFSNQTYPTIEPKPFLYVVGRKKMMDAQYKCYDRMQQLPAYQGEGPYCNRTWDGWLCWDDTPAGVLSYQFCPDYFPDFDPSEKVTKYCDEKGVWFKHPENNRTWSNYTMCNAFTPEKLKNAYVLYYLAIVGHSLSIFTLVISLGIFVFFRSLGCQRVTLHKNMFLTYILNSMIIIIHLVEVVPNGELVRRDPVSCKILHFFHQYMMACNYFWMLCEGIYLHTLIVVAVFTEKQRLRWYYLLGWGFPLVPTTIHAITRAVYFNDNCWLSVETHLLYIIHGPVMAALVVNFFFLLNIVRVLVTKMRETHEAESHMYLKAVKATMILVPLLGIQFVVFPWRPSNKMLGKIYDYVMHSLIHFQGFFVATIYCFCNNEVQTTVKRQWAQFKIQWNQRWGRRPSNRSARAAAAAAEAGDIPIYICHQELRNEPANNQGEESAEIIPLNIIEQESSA
T8 sequence (looked up) 2: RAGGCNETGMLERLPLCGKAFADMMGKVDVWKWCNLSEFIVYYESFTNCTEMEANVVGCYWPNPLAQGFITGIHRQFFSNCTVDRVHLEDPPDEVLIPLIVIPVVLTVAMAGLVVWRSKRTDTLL


Key:
Test in all cases: cell-based or functional assay
[1] = molecular target: T1, rat amylin 3(a) receptor (rat …)
[2] = molecular target: T2, rat calcitonin (a) receptor
[3] = molecular target: T3, human amylin 3(a) receptor (human …)
[4] = molecular target: T4, human calcitonin (a) receptor
[5] = molecular target: T5, human amylin 3(a) receptor (human calcitonin receptor with RAMP-3) (human)
[6] = molecular target: T6, human calcitonin (a) receptor (human)
[7] = molecular target: T7, human amylin 3(a) receptor (human calcitonin receptor co-expressed with RAMP-3) (human)
[8] = molecular target: T8, human amylin 3(a) receptor (human calcitonin receptor + RAMP-3) (human)
[9] = molecular target: T7, human amylin 3(a) receptor (human calcitonin receptor co-expressed with RAMP-3) (human); remark: listed apart in the source

Amylin receptor rat EC50 [1] [nM]	CTa receptor rat EC50 [2] [nM]	Amylin receptor human EC50 [3] [nM]	CTa receptor human EC50 [4] [nM]	Amylin receptor human EC50 (pM) [5] [pM]	CTa receptor human EC50 [6] [nM]	CTa receptor human EC50 (pM) [6] [pM]	Amylin receptor human EC50 (pM) [7] [pM]	Amylin receptor human EC50 [8] [nM]	Amylin receptor human EC50 (pM) [9] [pM]	Binder
0.261	1.29	0.0985	0.157							{C20 diacid-γGlu}-HHHCRTATCATQRLAEFLHHSSNNFGPILPPTNVGSNTY-NH2 (disulfide 4-9; SMILES CC[C@H](C)[C@H](NC(=O)[C@@H]1CCCN1C(=O)CNC(=O)[C@H](Cc1ccccc1)NC(=O)[C@H](CC(N)=O)NC(=O)[C@H](CC(N)=O)NC(=O)[C@H](CO)NC(=O)[C@H](CO)NC(=O)[C@H](Cc1c[nH]cn1)NC(=O)[C@H](Cc1c[nH]cn1)NC(=O)[C@H](CC(C)C)NC(=O)[C@H](Cc1ccccc1)NC(=O)[C@H](CCC(=O)O)NC(=O)[C@H](C)NC(=O)[C@H](CC(C)C)NC(=O)[C@H](CCCNC(=N)N)NC(=O)[C@H](CCC(N)=O)NC(=O)[C@@H](NC(=O)[C@H](C)NC(=O)[C@@H]1CSSC[C@H](NC(=O)[C@H](Cc2c[nH]cn2)NC(=O)[C@H](Cc2c[nH]cn2)NC(=O)[C@H](Cc2c[nH]cn2)NC(=O)CC[C@H](NC(=O)CCCCCCCCCCCCCCCCCCC(=O)O)C(=O)O)C(=O)N[C@@H](CCCNC(=N)N)C(=O)N[C@@H]([C@@H](C)O)C(=O)N[C@@H](C)C(=O)N[C@@H]([C@@H](C)O)C(=O)N1)[C@@H](C)O)C(=O)N[C@@H](CC(C)C)C(=O)N1CCC[C@H]1C(=O)N1CCC[C@H]1C(=O)N[C@H](C(=O)N[C@@H](CC(N)=O)C(=O)N[C@H](C(=O)NCC(=O)N[C@@H](CO)C(=O)N[C@@H](CC(N)=O)C(=O)N[C@H](C(=O)N[C@@H](Cc1ccc(O)cc1)C(N)=O)[C@@H](C)O)C(C)C)[C@@H](C)O)
				306	0.669	669	306	0.305	306	{C20 diacid-γGlu}-SSGSSGHCNTATCATQRLAEFLHHSSNNFGPILPPTNVGSNTY-NH2 (disulfide 8-13 (inferred))
